The chains are these.
B1: TPD52L1 (parent)
chain: ISKKFGDMSYSIRHSISMPAMRNS
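Also: lentivirally expressed fusions sorted by FACS into six bins by GFP to DsRed ratio, PSI derived from sequencing read proportions per bin multiplied by bin number.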

In the series the parent is B1. Put plainly: protein stability index of a GFP-peptide fusion (GPS, HEK-293T) (PSI 1-6); higher = more stable. Conditions: c terminus: a fixed tail appended.
For the variant ISKKFGDMSYSIRHSISMPNMRNS [A20N], the protein stability index amounted to 2.58.
In the case of ISKKFGDMSYSIRHSISMPQMRNS [A20Q] it was 2.26.
ISKKFGDMSYSIRHSISMPKMRNS [A20K]: the protein stability index was 2.35.
As to ISKKFGDMSYSIRHSISMPYMRNS [A20Y], the protein stability index came to 2.17.
Take ISKKFGDMSYSIRHSISMPVMRNS [A20V]: the protein stability index was 2.95.
Take ISKKFGDMSYSIRHSISMPHMRNS [A20H]: the protein stability index amounted to 2.28.
As for ISKKFGDMSYSIRHSISMPPMRNS [A20P], the protein stability index turned out to be 2.36.
Regarding ISKKFGDMSYSIRHSISMPTMRNS [A20T], the protein stability index stood at 2.58.
The figure for ISKKFGDMSYSIRHSISMPSMRNS [A20S] is 2.04; for ISKKFGDMSYSIRHSISMPIMRNS [A20I] it is 2.67; for ISKKFGDMSYSIRHSISMPGMRNS [A20G] it is 1.67.
For the variant ISKKFGDMSYSIRHSISMPEMRNS [A20E], the protein stability index is 2.58.
The figure for ISKKFGDMSYSIRHSISMPMMRNS [A20M] is 1.95; for ISKKFGDMSYSIRHSISMPFMRNS [A20F] it is 2.2.
Consider ISKKFGDMSYSIRHSISMPCMRNS [A20C], for which the protein stability index turned out to be 2.38.
ISKKFGDMSYSIRHSISMPDMRNS [A20D]: the protein stability index amounted to 3.36.
On to ISKKFGDMSYSIRHSISMPRMRNS [A20R], for which the protein stability index worked out at 2.24.
Regarding ISKKFGDMSYSIRHSISMPLMRNS [A20L], the protein stability index is 1.93.
Turning to ISKKFGDMSYSIRHSISMPWMRNS [A20W], the protein stability index turned out to be 2.13.
Regarding ISKKFGDMSYSIRHSISMPAMRNE [S24E], the protein stability index turned out to be 2.15.
For the variant ISKKFGDMSYSIRHSISMPAMRNC [S24C], the protein stability index is 1.92.
Consider ISKKFGDMSYSIRHSISMPAMRNH [S24H], for which the protein stability index amounted to 2.42.
Consider ISKKFGDMSYSIRHSISMPAMRNY [S24Y], for which the protein stability index was determined as 1.77.
For the variant ISKKFGDMSYSIRHSISMPAMRNL [S24L], the protein stability index came out at 1.96.
Regarding ISKKFGDMSYSIRHSISMPAMRNP [S24P], the protein stability index is 2.33.
With ISKKFGDMSYSIRHSISMPAMRNQ [S24Q], the protein stability index amounted to 1.76.
On to ISKKFGDMSYSIRHSISMPAMRNM [S24M], for which the protein stability index came out at 1.82.
On to ISKKFGDMSYSIRHSISMPAMRNV [S24V], for which the protein stability index amounted to 2.24.
On to ISKKFGDMSYSIRHSISMPAMRNK [S24K], for which the protein stability index is 2.21.
The figure for ISKKFGDMSYSIRHSISMPAMRNG [S24G] is 2.13.
In the case of ISKKFGDMSYSIRHSISMPAMRNW [S24W], the protein stability index is 1.44.
Regarding ISKKFGDMSYSIRHSISMPAMRND [S24D], the protein stability index worked out at 2.61.
As to ISKKFGDMSYSIRHSISMPAMRNR [S24R], the protein stability index worked out at 2.67.
As to ISKKFGDMSYSIRHSISMPAMRNN [S24N], the protein stability index is 2.33.
Turning to ISKKFGDMSYSIRHSISMPAMRNI [S24I], the protein stability index was determined as 1.81.
The figure for ISKKFGDMSYSIRHSISMPAMRNA [S24A] is 2.63; for ISKKFGDMSYSIRHSISMPAMRNT [S24T] it is 2.74.
As for ISKKFGDMSYSIRHSISMPAMRNF [S24F], the protein stability index amounted to 1.57.
The figure for ISKKFGDMSYSIRHSISEPAMRNS [M18E] is 2.74; for ISKKFGDMSYSIRHSISNPAMRNS [M18N] it is 2.28.
In the case of ISKKFGDMSYSIRHSISYPAMRNS [M18Y], the protein stability index is 1.87.
The figure for ISKKFGDMSYSIRHSISGPAMRNS [M18G] is 2.42; for ISKKFGDMSYSIRHSISPPAMRNS [M18P] it is 2.64.
Consider ISKKFGDMSYSIRHSISWPAMRNS [M18W], for which the protein stability index turned out to be 1.7.
In the case of ISKKFGDMSYSIRHSISLPAMRNS [M18L] it was 2.01; in that of ISKKFGDMSYSIRHSISHPAMRNS [M18H], 2.6.
Regarding ISKKFGDMSYSIRHSISCPAMRNS [M18C], the protein stability index amounted to 2.21.
For the variant ISKKFGDMSYSIRHSISDPAMRNS [M18D], the protein stability index amounted to 2.88.
ISKKFGDMSYSIRHSISRPAMRNS [M18R]: the protein stability index came out at 2.34.
With ISKKFGDMSYSIRHSISSPAMRNS [M18S], the protein stability index is 2.05.
As to ISKKFGDMSYSIRHSISQPAMRNS [M18Q], the protein stability index turned out to be 2.77.
In the case of ISKKFGDMSYSIRHSISVPAMRNS [M18V] it was 1.83; in that of ISKKFGDMSYSIRHSISFPAMRNS [M18F], 1.8.
With ISKKFGDMSYSIRHSISKPAMRNS [M18K], the protein stability index was found to be 2.31.
On to ISKKFGDMSYSIRHSISIPAMRNS [M18I], for which the protein stability index was 2.53.
In the case of ISKKFGDMSYSIRHSISAPAMRNS [M18A], the protein stability index was found to be 2.64.
Regarding ISKKFGDMSYSIRHSISTPAMRNS [M18T], the protein stability index was 2.58.
With ISKKFGDMSYSIRHSIIMPAMRNS [S17I], the protein stability index is 2.03.
As to ISKKFGDMSYSIRHSICMPAMRNS [S17C], the protein stability index was 1.92.
The figure for ISKKFGDMSYSIRHSIAMPAMRNS [S17A] is 2.01; for ISKKFGDMSYSIRHSIPMPAMRNS [S17P] it is 2.28.
In the case of ISKKFGDMSYSIRHSIDMPAMRNS [S17D], the protein stability index amounted to 2.36.
For ISKKFGDMSYSIRHSITMPAMRNS [S17T], the protein stability index turned out to be 2.11.
For the variant ISKKFGDMSYSIRHSIYMPAMRNS [S17Y], the protein stability index came out at 1.98.
Take ISKKFGDMSYSIRHSINMPAMRNS [S17N]: the protein stability index was determined as 2.25.
With ISKKFGDMSYSIRHSIQMPAMRNS [S17Q], the protein stability index amounted to 2.48.
Consider ISKKFGDMSYSIRHSIWMPAMRNS [S17W], for which the protein stability index amounted to 1.27.
Regarding ISKKFGDMSYSIRHSIEMPAMRNS [S17E], the protein stability index is 2.1.
For the variant ISKKFGDMSYSIRHSIRMPAMRNS [S17R], the protein stability index amounted to 2.17.
The figure for ISKKFGDMSYSIRHSIVMPAMRNS [S17V] is 2.12; for ISKKFGDMSYSIRHSIFMPAMRNS [S17F] it is 2.13.
For the variant ISKKFGDMSYSIRHSIGMPAMRNS [S17G], the protein stability index was found to be 2.42.
The figure for ISKKFGDMSYSIRHSILMPAMRNS [S17L] is 1.8; for ISKKFGDMSYSIRHSIHMPAMRNS [S17H] it is 2.15.
In the case of ISKKFGDMSYSIRHSIMMPAMRNS [S17M] it was 2.17; in that of ISKKFGDMSYSIRHSIKMPAMRNS [S17K], 2.13; in that of ISKKFGDMSYSIRHSWSMPAMRNS [I16W], 1.97.
In the case of ISKKFGDMSYSIRHSESMPAMRNS [I16E] it was 3.25; in that of ISKKFGDMSYSIRHSCSMPAMRNS [I16C], 2.02.
On to ISKKFGDMSYSIRHSRSMPAMRNS [I16R], for which the protein stability index was found to be 2.81.
ISKKFGDMSYSIRHSVSMPAMRNS [I16V]: the protein stability index was 2.32.
Regarding ISKKFGDMSYSIRHSPSMPAMRNS [I16P], the protein stability index stood at 2.99.
The figure for ISKKFGDMSYSIRHSMSMPAMRNS [I16M] is 2.9; for ISKKFGDMSYSIRHSLSMPAMRNS [I16L] it is 2.46.
The figure for ISKKFGDMSYSIRHSQSMPAMRNS [I16Q] is 2.72; for ISKKFGDMSYSIRHSDSMPAMRNS [I16D] it is 2.6.
In the case of ISKKFGDMSYSIRHSASMPAMRNS [I16A] it was 2.76; in that of ISKKFGDMSYSIRHSFSMPAMRNS [I16F], 1.61.
With ISKKFGDMSYSIRHSYSMPAMRNS [I16Y], the protein stability index amounted to 2.12.
In the case of ISKKFGDMSYSIRHSHSMPAMRNS [I16H], the protein stability index is 2.36.
With ISKKFGDMSYSIRHSSSMPAMRNS [I16S], the protein stability index was 2.77.
With ISKKFGDMSYSIRHSNSMPAMRNS [I16N], the protein stability index was found to be 2.61.
For ISKKFGDMSYSIRHSTSMPAMRNS [I16T], the protein stability index came to 2.67.
On to ISKKFGDMSYSIRHSKSMPAMRNS [I16K], for which the protein stability index turned out to be 2.98.

The record behind these values is the supplement of paper PMC10567573.
